Patent US20240261333A1, “NOVEL TARGETS FOR ENHANCING ANTI-TUMOR IMMUNITY” (THE BROAD INSTITUTE, INC., priority 2021, published 2024)

Tests used:
CDSN = CDSN (UniProt Q15517); assay: co-IP, anti-FLAG, N-FLAG B3GNT2 cell lysate, mass spectrometry
POF1B = POF1B (UniProt Q8WVV4); assay: as above
DNAJA2 = DNAJA2 (UniProt O60884); assay: as above
RPL27A = RPL27A (UniProt P46776); assay: as above
RPL3 = RPL3 (UniProt P39023); assay: as above
PSMA7 = PSMA7 (UniProt O14818); assay: as above
MTCH2 = MTCH2 (UniProt Q9Y6C9); assay: as above
RPL19 = RPL19 (UniProt P84098); assay: as above
ITGB3 = ITGB3 (UniProt P05106); assay: as above
TAGLN = TAGLN (UniProt Q01995); assay: as above
HIST1H1E = HIST1H1E (UniProt P10412); assay: as above
LTF = LTF (UniProt P02788); assay: co-IP with mouse IgG control, mass spectrometry; lysate of N-FLAG B3GNT2 cells
RCC2 = RCC2 (UniProt Q9P258); assay: as above
CTSD = CTSD (UniProt P07339); assay: as above
RPS17 = RPS17 (UniProt P08708); assay: as above
RPL21 = RPL21 (UniProt P46778); assay: as above
FABP5 = FABP5 (UniProt Q01469); assay: as above
STRAP = STRAP (UniProt Q9Y3F4); assay: as above
PCMT1 = PCMT1 (UniProt P22061); assay: as above
EEF1A1 = EEF1A1 (UniProt P68104); assay: as above
SERPINB12 = SERPINB12 (UniProt Q96P63); assay: as above
PPIA = PPIA (UniProt P62937); assay: as above
YBX3 = YBX3 (UniProt P16989); assay: as above
RPL31 = RPL31 (UniProt P62899); assay: as above
RPLP2 = RPLP2 (UniProt P05387); assay: as above
HBA1 = HBA1 (UniProt P69905); assay: as above
TRIM21 = TRIM21 (UniProt P19474); assay: as above
RPL10A = RPL10A (UniProt P62906); assay: as above
HNRNPF = HNRNPF (UniProt P52597); assay: as above
ENO1 = ENO1 (UniProt P06733); assay: as above
RPL36A = RPL36A (UniProt P83881); assay: as above
RPS15A = RPS15A (UniProt P62244); assay: as above
RPL36 = RPL36 (UniProt Q9Y3U8); assay: as above
RPL11 = RPL11 (UniProt P62913); assay: as above
RPN1 = RPN1 (UniProt P04843); assay: as above
RPL35A = RPL35A (UniProt P18077); assay: as above
UBA52 = UBA52 (UniProt P62987); assay: as above
SLIRP = SLIRP (UniProt Q9GZT3); assay: as above
S100A8 = S100A8 (UniProt P05109); assay: as above

YBX3, sequence (P16989 2-372 limits assumed): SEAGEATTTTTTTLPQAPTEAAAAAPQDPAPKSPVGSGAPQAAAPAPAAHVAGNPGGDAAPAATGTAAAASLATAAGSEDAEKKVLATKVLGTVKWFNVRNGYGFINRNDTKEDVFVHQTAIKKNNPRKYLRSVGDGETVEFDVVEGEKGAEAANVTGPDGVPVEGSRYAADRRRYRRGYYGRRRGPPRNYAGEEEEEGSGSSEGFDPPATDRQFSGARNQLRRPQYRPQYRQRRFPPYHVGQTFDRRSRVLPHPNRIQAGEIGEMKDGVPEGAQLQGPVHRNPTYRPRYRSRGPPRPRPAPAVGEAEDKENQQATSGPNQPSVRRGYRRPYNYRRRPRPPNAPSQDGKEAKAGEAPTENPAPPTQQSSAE
EEF1A1, sequence (P68104 2-462 limits assumed): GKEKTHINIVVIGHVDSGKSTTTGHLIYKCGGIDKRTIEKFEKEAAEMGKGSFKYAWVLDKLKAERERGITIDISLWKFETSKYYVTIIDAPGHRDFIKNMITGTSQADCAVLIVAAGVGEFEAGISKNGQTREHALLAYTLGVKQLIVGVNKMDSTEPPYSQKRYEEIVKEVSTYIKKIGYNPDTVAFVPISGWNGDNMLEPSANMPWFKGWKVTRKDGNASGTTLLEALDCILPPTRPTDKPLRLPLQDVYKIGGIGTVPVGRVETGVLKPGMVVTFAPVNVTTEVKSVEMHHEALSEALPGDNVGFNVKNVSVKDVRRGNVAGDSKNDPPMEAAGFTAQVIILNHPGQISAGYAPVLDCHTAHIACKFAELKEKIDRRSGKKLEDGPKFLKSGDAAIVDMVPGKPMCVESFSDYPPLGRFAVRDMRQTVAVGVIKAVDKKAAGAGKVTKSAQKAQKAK
SERPINB12, sequence (Q96P63 other isoform, or with tags, fused parts or gaps limits assumed): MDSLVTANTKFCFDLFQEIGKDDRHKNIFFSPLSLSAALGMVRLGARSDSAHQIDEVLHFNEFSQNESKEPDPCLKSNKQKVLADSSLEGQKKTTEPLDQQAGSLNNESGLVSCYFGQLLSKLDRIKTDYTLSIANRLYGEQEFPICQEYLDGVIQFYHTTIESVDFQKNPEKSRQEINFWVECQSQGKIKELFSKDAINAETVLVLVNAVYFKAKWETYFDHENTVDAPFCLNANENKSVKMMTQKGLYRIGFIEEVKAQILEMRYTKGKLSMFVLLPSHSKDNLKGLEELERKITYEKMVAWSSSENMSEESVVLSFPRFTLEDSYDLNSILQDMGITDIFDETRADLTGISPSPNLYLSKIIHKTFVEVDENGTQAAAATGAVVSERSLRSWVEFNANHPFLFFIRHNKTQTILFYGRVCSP
HIST1H1E, sequence (P10412 2-219 limits assumed): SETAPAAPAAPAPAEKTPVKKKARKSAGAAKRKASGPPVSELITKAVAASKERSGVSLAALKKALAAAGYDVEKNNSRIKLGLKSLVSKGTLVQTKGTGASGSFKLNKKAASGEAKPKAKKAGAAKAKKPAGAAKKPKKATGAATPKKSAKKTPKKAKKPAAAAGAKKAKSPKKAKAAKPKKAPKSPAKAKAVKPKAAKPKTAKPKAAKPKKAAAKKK
TRIM21, sequence (P19474 whole entry): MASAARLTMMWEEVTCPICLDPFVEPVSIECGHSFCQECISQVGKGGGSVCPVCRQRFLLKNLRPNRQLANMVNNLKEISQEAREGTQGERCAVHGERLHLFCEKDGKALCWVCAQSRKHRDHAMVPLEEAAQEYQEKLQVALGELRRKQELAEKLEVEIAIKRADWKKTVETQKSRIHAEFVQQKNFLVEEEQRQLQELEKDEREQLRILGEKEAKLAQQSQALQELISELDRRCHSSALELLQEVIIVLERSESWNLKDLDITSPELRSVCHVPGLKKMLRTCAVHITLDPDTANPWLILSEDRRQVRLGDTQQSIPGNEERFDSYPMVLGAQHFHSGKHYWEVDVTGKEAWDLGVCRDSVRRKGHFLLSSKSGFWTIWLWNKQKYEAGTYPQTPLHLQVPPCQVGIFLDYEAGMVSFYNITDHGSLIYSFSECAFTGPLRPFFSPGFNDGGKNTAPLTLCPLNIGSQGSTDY
POF1B, sequence (Q8WVV4 other isoform, or with tags, fused parts or gaps limits assumed): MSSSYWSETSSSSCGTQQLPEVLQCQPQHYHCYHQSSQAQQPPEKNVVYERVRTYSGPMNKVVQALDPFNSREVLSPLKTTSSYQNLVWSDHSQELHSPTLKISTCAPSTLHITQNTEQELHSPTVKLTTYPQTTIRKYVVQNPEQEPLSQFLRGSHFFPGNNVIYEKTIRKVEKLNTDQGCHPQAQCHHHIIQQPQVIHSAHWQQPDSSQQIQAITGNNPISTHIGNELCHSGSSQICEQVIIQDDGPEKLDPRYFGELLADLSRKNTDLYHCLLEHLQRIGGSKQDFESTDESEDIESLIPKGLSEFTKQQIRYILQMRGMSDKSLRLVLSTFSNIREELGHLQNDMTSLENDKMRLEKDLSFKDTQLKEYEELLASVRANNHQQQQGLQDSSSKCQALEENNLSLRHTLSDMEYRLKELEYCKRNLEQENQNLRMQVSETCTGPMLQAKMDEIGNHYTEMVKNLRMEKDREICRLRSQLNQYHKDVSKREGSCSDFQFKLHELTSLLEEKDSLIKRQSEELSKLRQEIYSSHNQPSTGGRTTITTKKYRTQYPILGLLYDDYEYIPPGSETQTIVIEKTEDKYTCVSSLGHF
ENO1, sequence (P06733 2-434 limits assumed): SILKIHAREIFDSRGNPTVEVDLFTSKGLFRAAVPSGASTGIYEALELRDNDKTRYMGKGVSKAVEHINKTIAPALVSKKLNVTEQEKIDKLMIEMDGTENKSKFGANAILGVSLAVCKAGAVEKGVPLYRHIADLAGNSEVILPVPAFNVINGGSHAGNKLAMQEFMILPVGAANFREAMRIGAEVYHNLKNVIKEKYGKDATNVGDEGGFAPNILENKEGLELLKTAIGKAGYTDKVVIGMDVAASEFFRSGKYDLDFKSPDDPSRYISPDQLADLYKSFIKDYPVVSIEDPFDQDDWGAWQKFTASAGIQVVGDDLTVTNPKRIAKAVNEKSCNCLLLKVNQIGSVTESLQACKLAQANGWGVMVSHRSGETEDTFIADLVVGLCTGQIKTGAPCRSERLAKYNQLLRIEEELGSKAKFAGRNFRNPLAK
PPIA, sequence (P62937 2-165 limits assumed): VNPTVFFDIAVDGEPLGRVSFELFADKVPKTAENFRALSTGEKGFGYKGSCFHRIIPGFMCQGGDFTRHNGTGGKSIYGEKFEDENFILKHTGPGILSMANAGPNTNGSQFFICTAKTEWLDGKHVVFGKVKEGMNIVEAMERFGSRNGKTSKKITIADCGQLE
LTF, sequence (P02788 20-710 limits assumed): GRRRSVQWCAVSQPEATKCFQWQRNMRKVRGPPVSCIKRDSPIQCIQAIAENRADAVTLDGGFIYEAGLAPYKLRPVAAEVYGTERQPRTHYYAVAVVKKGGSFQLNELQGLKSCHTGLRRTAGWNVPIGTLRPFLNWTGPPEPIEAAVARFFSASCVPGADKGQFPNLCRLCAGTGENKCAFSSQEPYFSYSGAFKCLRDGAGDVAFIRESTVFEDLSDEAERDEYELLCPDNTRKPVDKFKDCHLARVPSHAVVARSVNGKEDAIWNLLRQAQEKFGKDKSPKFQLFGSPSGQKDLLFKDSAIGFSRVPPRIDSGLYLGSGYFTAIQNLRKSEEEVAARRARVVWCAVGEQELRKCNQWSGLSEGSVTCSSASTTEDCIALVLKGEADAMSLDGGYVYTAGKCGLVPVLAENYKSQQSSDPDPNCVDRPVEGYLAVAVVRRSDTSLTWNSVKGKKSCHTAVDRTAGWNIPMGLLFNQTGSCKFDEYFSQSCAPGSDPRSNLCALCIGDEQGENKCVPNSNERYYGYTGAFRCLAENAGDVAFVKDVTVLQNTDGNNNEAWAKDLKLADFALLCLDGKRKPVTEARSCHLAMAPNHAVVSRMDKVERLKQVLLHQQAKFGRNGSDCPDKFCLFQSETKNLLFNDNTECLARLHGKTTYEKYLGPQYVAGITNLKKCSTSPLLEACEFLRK
STRAP, sequence (Q9Y3F4 whole entry): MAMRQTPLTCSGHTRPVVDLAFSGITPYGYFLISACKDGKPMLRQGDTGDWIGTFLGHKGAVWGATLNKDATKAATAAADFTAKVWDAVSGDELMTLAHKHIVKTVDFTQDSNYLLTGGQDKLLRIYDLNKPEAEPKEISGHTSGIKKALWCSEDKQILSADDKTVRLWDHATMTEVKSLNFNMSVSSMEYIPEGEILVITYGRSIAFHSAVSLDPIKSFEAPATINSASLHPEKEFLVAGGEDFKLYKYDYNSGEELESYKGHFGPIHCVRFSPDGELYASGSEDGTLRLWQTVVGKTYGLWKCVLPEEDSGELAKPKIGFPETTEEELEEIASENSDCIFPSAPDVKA
FABP5, sequence (Q01469 2-135 limits assumed): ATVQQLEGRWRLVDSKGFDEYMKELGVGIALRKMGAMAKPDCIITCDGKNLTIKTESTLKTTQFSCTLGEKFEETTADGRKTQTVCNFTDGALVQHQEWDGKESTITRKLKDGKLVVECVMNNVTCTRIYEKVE
HNRNPF, sequence (P52597 2-415 limits assumed): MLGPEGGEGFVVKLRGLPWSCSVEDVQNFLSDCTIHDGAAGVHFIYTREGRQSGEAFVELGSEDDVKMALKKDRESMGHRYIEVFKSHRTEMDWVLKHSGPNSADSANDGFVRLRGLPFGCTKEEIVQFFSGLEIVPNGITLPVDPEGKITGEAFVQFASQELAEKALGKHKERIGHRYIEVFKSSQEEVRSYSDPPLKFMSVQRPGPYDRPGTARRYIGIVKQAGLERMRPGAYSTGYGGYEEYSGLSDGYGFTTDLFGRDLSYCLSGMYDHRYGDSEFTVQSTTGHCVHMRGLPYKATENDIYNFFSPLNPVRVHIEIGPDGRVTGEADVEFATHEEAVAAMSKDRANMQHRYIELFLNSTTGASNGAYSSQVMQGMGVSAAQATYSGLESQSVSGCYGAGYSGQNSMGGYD
HBA1, sequence (P69905 2-142 limits assumed): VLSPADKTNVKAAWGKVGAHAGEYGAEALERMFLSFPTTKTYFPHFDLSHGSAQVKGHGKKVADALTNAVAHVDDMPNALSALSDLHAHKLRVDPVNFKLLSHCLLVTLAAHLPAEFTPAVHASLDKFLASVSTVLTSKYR

## N-terminal FLAG tagged B3GNT2 (from UniProt Q9NY97 1-397) (enzyme)
CDSN
  co-IP mass spectrometry count: 5
POF1B
  co-IP mass spectrometry count: 5
DNAJA2
  co-IP mass spectrometry count: 3
RPL27A
  co-IP mass spectrometry count: 7
RPL3
  co-IP mass spectrometry count: 8
PSMA7
  co-IP mass spectrometry count: 4
MTCH2
  co-IP mass spectrometry count: 4
RPL19
  co-IP mass spectrometry count: 8
ITGB3
  co-IP mass spectrometry count: 3
TAGLN
  co-IP mass spectrometry count: 2
HIST1H1E
  co-IP mass spectrometry count: 6

## IgG control (Millipore Sigma 12-371) (antibody)
LTF
  co-IP mass spectrometry count: 6
RCC2
  co-IP mass spectrometry count: 0
CTSD
  co-IP mass spectrometry count: 3
RPS17
  co-IP mass spectrometry count: 3
RPL21
  co-IP mass spectrometry count: 5
FABP5
  co-IP mass spectrometry count: 2
STRAP
  co-IP mass spectrometry count: 0
PCMT1
  co-IP mass spectrometry count: 0
EEF1A1
  co-IP mass spectrometry count: 8
SERPINB12
  co-IP mass spectrometry count: 0
PPIA
  co-IP mass spectrometry count: 0
YBX3
  co-IP mass spectrometry count: 0
RPL31
  co-IP mass spectrometry count: 0
RPLP2
  co-IP mass spectrometry count: 3
HBA1
  co-IP mass spectrometry count: 3
TRIM21
  co-IP mass spectrometry count: 0
RPL10A
  co-IP mass spectrometry count: 4
HNRNPF
  co-IP mass spectrometry count: 0
ENO1
  co-IP mass spectrometry count: 2
RPL36A
  co-IP mass spectrometry count: 2
RPS15A
  co-IP mass spectrometry count: 2
RPL36
  co-IP mass spectrometry count: 0
RPL11
  co-IP mass spectrometry count: 3
RPN1
  co-IP mass spectrometry count: 0
RPL35A
  co-IP mass spectrometry count: 0
UBA52
  co-IP mass spectrometry count: 5
SLIRP
  co-IP mass spectrometry count: 0
S100A8
  co-IP mass spectrometry count: 4
